The values below come from patent publication US8263326B2, “Compounds and methods for modulating activation of NF-κB” (Signal Pharmaceuticals, LLC, priority 1998, dated 2012).

Non-standard residues stand in square brackets, D forms with d. No end group written: not given here. pS = N[C@@H](COP(=O)(O)O)C(=O)O

One experiment concerns the target T1, β-TrCP (Homo sapiens, UniProt Q9Y297).
T1 construct: made in house; host or cells: transfected 293 (293T) cells, immunoprecipitated through FLAG
The experiment can be described thus: Peptide competition of β-TrCP binding to pIκBα. As to conditions: FIG. 11B. As for the experimental part:
(§1) FIGS. 11A-11C are Western blots illustrating binding and ubiquitination specificity of E3 ubiquitin ligase family members. Within these figures, mβ-TrCP indicates mouse β-TrCP, hβ-TrCP indicates human β-TrCP, Δβ-TrCP indicates human β-TrCP with a deletion of the F box region and Slimb indicates the Drosophila Slimb protein. FIG. 11A illustrates selective binding to pIκBα. Proteins were immunoprecipitated through a FLAG epitope from transfected 293T cells, incubated with immunopurified IκBα/NF-κB complex, which had been treated (−/+IKK) as indicated and the bound material was analyzed by Western blotting with the indicated antibodies. […] FIG. 11C illustrates in vitro ubiquitination of pIκBα by the E3 family member proteins. Immunopurified FLAG-tagged proteins were incubated with ^35 S-labeled IκBα/NF-κB complexes, treated (−/+IKK) as indicated and subject to ubiquitination in the presence of ATPγS, ubiquitin. E1 and UBC5C. The IκBα substrate (composed of full-length and two degradation products), pIκBα-polyubiquitin conjugates and molecular size markers are indicated on the left.
The ability of these proteins to bind pIκBα specifically and assist in its ubiquitination was examined in a cell-free system. […] The bound material was analyzed by Western blotting with anti-IκBα and anti-FLAG antibodies. […]

Experiment [1] has as its system pIκBα-associated ubiquitin-ligase. The experiment in a line: In vitro ubiquitination of pIκBα/NF-κB complex immunopurified from TNFα-stimulated HeLa cells with E1 and UBC5C. The experiment is classed as biochemical, human. Particulars: Bestatin 40 μg/ml, FIG. 5. The method, then:
To further study the recruitment of components of the ubiquitin machinery by phosphorylated IκBα-complexes, pIκBα/NF-κB complexes were purified from proteasome inhibited, TNF-α stimulated HeLa cells, and their ubiquitination potential was evaluated. HeLa cells were pre-incubated with the proteasome inhibitor ALLN (150 μM) for 1 hour and stimulated for 10 minutes with TNFα. […]
The immunopurified fraction was supplemented with various components of the ubiquitin system and subjected to in vitro ubiquitination. […] The reaction mix was then boiled in SDS-buffer and the sample analyzed by SDS-PAGE (8.5%) and phospho-imaging.
To determine the source of the IκBα-conjugates, the ubiquitination reactions were performed in the presence of a pIκBα peptide (pp12; CDRHDS[PO3]GLDS[PO3]; SEQ ID NO:22) (lane 7) or a serine/glutamic-acid substituted IκBα peptide (p12S/E) (lane 8). Both peptides were synthetic, purchased from Alfa-Diagnostic, Inc., and then HPLC-purified, analyzed by mass spectrometry, verified for the predicted structure and proven to be over 85% pure. […]

Experiment [2] has as its system ubiquitin-ligase activity associated with the pIκB-complex. The experiment can be described thus: Recruitment of ubiquitin-ligase activity from HeLa lysate to IKK2-EE phosphorylated IκBα/NF-κB complex. Format: biochemical, human. As to conditions: peptide included in incubation with HeLa lysate, FIG. 6. The method, then:
Following immunoprecipitation of ^35S-labeled IκBα/NF-κB complexes from a non-stimulated HeLa lysate previously incubated with recombinant ^35S-labeled IκBα, the complexes were phosphorylated by the recombinant IKK2-EE, eluted with the p65 cognate peptide and subjected to in vitro ubiquitination. After incubation with IKK2-EE, nearly all of the ^35S-IκB was phosphorylated. […] Therefore, IκB phosphorylation by IKK was not sufficient to promote its ubiquitination in the presence of E1 and E2. Conceivably, pIκBα ubiquitination requires an additional component of the HeLa lysate that was not co-immunopurified from non-stimulated cells.
To confirm this hypothesis, immuno-bound IκBα/NF-κB complexes were incubated with a non-stimulated HeLa lysate, either directly or following IKK2-EE phosphorylation, washed extensively with high-salt buffer and eluted with the p65 peptide. Indeed, incubation of the phosphorylated IκB complexes (FIG. 6 lane 3), but not of the non-phosphorylated ones (lane 1), with the HeLa lysate, provided the pIκB-ligase component(s) necessary for pIκBα conjugation. No signal was obtained when E1 or E2 were omitted from the reaction, confirming that the signal at the top of the gel represents poly-ubiquitin IκBα-conjugates (lanes 5, 6). […]

Experiment [3] relates to pIκBα-associated proteins (p54, p58, p61, 64 kD). The experiment in a line: Association of 35S-labeled HeLa lysate proteins with immuno-bound pIκBα/NF-κB complex (SDS-PAGE, autoradiography). The experiment is classed as binding, human. As to conditions: peptide added to radiolabeled HeLa lysate, FIG. 7B. The method, then:
HeLa extract (250 mg) was incubated with 250 μl anti-p65 immunobeads. Following four washes in buffer A (1M KCl, 0.5% NP40, 50 mM Tris buffer pH 7.6, 1 mM DTT) and one wash in buffer B (50 mM Tris buffer, pH 7.6, 1 mM DTT), half the beads were subject to in vitro phosphorylation with IKK and half underwent mock-phosphorylation. The beads were washed twice in buffer A and once in buffer B, agitated with 100 mg HeLa extract in the presence of 1 μm okadaic acid for 30 min at 25° C., washed four times with buffer A, once in buffer A and eluted with 1 mg/ml p65 peptide. A similar experiment was performed with 10 mg ^35 S-metabolically-labeled HeLa cell lysate (100 μCi/ml Met/Cys for 8 hours) and 25 μl p65-immunobeads. Eluate-fractions derived from both the hot and cold lysates were mixed, boiled in SDS-sample buffer and analyzed by 7.5% SDS-PAGE and autoradiography. Gel slices corresponding to the autoradiogram signals were excised and their protein-bands sequenced by mass-spectrometry, as described below.
To circumvent the possible masking of the putative pIκB-ubiquitin ligase, we replaced the ligase source with ^35S-biosynthetically-labeled HeLa lysate and traced the IκBα-associated proteins by SDS-PAGE analysis and autoradiography (FIG. 7B). In parallel, the various fractions were tested for their ubiquitin-ligase capacity. […]

Another experiment deals with T2, pIκBα (Homo sapiens, UniProt P25963).
T2 construct: The IκBα/NF-κB complex was immunopurified from HeLa cells; endogenous in cells; host or cells: HeLa cells
The experiment in a line: Binding of immobilized FLAG-tagged E3 family members to IκBα/NF-κB complex (Western blot). As to conditions: FIG. 11A. The method, then: as §1
The ability of these proteins to bind pIκBα specifically and assist in its ubiquitination was examined in a cell-free system. The IκBα/NF-κB complex was immunopurified from HeLa cells and the immune complex was either phosphorylated with IKK2-EE or mock-phosphorylated as described above. It was then incubated with the following immobilized FLAG-tagged E3 family members immunoprecipitated from transfected 293 cells: mouse β-TrCP (mβ-TrCP), human β-TrCP (hβ-TrCP), human β-TrCP with a deletion of the F box region residues 122-168 (Δβ-TrCP) and the Drosophila Slimb protein. The bound material was analyzed by Western blotting with anti-IκBα and anti-FLAG antibodies. […] Furthermore, β-TrCP binding was abrogated by a peptide representing the pIκBα recognition motif (pp10; DRHDS(PO3)GLDS(PO3)M (SEQ ID NO:29); see FIG. 11B, lane 3), but not by the control peptide (lane 4), specifying the site of pIκBα recognition of the conserved DS(PO3)GLDS(PO3) (SEQ ID NO:30) sequence.
(In western blotting, separated proteins are transferred to a membrane and probed.)

The test system of experiment [4] is NF-κB activation in Jurkat cells. The experiment can be described thus: κB-dependent luciferase assay in P/I-stimulated Jurkat cells. The experiment is classed as cell-based. Particulars: transient over-expression in stimulated Jurkat cells. The text has this:
FIGS. 12A and 12B illustrate inhibition of IκBα degradation and NF-κB activation by overexpression of Δβ-TrCP, a dominant negative molecule. FIG. 12A is a graph depicting the results of a κB-dependent luciferase assay in P/I-stimulated Jurkat cells transfected with κB-Luc reporter plasmid and the indicated expression vectors (i.e., from left to right, vector alone, vector encoding human β-TrCP, vector encoding human β-TrCP with a deletion of the F box region and vector encoding Drosophila Slimb protein). NF-κB activity is shown as relative (fold) luciferase activity, the non-stimulated empty FLAG vector being the reference (single-fold). FIG. 12B depicts the results of western blot analysis of IκBα of phorbol-ester and Ca^++ ionophore [P/I]-stimulated and non-stimulated Jurkat cells transfected with an empty FLAG vector or Δβ-TrCP. The post-stimulation interval (min) is indicated.

T2 sequence (P25963 whole entry): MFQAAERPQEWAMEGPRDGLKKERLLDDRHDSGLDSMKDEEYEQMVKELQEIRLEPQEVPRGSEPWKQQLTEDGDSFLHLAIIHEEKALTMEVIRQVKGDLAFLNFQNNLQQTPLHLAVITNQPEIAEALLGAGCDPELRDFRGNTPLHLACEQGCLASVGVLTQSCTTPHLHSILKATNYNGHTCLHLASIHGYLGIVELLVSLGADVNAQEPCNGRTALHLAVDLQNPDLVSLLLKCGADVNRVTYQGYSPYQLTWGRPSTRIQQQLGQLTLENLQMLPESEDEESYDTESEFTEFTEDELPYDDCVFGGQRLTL
T2 sequence (Q04206 whole entry partner): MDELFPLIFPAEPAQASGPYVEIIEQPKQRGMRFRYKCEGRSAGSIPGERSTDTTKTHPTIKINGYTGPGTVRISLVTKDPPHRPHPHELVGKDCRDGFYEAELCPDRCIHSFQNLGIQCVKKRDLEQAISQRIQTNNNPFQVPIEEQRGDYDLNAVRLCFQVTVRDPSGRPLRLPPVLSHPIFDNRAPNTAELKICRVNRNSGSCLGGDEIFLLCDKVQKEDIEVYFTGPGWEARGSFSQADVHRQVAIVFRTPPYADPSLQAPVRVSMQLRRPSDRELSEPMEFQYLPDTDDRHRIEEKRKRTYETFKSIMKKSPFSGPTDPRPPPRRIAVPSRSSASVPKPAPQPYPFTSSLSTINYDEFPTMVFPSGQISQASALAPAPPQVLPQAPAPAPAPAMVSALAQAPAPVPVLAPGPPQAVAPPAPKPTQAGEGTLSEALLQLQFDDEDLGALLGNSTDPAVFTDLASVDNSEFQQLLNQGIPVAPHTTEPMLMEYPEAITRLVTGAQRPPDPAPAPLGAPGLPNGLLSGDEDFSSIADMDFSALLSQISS
T1 sequence (P63208 whole entry partner, one chain of several): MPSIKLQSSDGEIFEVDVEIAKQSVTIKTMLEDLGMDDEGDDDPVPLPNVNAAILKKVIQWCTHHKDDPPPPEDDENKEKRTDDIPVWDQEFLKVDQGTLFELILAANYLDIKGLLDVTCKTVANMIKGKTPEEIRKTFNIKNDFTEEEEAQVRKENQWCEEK

“pp10: peptide representing the pIκBα recognition motif, DRHDS(PO3)GLDS(PO3)M, SEQ ID NO:29 (DRHD[pS]GLD[pS]M; listed as Homo sapiens)”: the “effect of peptide on β-TrCP-pIκBα binding” value with β-TrCP is recorded as “abrogated”.
Take “pp12: pIκBα peptide CDRHDS[PO3]GLDS[PO3]; SEQ ID NO:22 (CDRHD[pS]GLD[pS]; listed as Homo sapiens)”: the “formation of polyubiquitin-IκBα conjugates” value in experiment [1] is “abolished”. Further, the “ubiquitin-ligase activity associated with the pIκB-complex” value in experiment [2] is “abrogated”. The “association of distinctive 35S-protein bands with pIκBα” value in experiment [3] is “three bands were eliminated”.

B1: hβ-TrCP: FLAG-tagged human β-TrCP, E3 family member (protein)
chain: MDPAEAVLQEKALKFMNSSEREDCNNGEPPRKIIPEKNSLRQTYNSCARLCLNQETVCLASTAMKTENCVAKTKLANGTSSMIVPKQRKLSASYEKEKELCVKYFEQWSESDQVEFVEHLISQMCHYQHGHINSYLKPMLQRDFITALPARGLDHIAENILSYLDAKSLCAAELVCKEWYRVTSDGMLWKKLIERMVRTDSLWRGLAERRGWGQYLFKNKPPDGNAPPNSFYRALYPKIIQDIETIESNWRCGRHSLQRIHCRSETSKGVYCLQYDDQKIVSGLRDNTIKIWDKNTLECKRILTGHTGSVLCLQYDERVIITGSSDSTVRVWDVNTGEMLNTLIHHCEAVLHLRFNNGMMVTCSKDRSIAVWDMASPTDITLRRVLVGHRAAVNVVDFDDKYIVSASGDRTIKVWNTSTCEFVRTLNGHKRGIACLQYRDRLVVSGSSDNTIRLWDIECGACLRVLEGHEELVRCIRFDNKRIVSGAYDGKIKVWDLVAALDPRAPAGTLCLRTLVEHSGRVFRLQFDEFQIVSSSHDDTILIWDFLNDPAAQAEPPRSPSRTYTYISR
modifications: left off: small tags and cut ends
notes: FLAG-tagged human β-TrCP, E3 family member
On to B1, for which the “relative binding of IκBα / pIκBα” value in the experiment with pIκBα (comparison between family members) is “far better than the highly homologous Drosophila protein”. The “binding to IKK-phosphorylated versus mock-phosphorylated IκBα” value in the experiment with pIκBα (FLAG-tagged protein from transfected 293 cells) is reported as “exclusively bound IKK-phosphorylated, but not mock-phosphorylated, IκBα”. For the same molecule, the “activation of NF-κB” value in experiment [4] is “not inhibitory”.
